Results published in patent US20120329707A1 (INDIANA UNIVERSITY RESEARCH AND TECHNOLOGY, published 2012).
Numbered stars: 1 amine (or outer) side, 2 acyl side, 3 side chain; on linkers, the order of the positions; unused ones are H or OH. Square brackets hold non-standard residues; d marks the D form. Side chains are listed from the residue outwards. Ends that are not written are not given here. * marks the point of attachment. 40K‑TE PEG = 40 kDa PEG covalently bound via thioether, formed by reaction of the free thiol of the peptide (Cys side chain) with an iodoacetic-functionalized PEG; γGlu = O=C(O)[C@H](CCC(=O)[*:2])N[*:1]; Palmitoyl = CCCCCCCCCCCCCCCC(=O)*; Aib = CC(C)(N)C(=O)O

B1: peptide of SEQ ID NO: 36 (peptide)
peptide: H[Aib]QGTFTSDK([γGlu-Palmitoyl])SKYLD[Aib]RAAQDFVQWLKDGRG-NH2
modifications: N-terminus assumed
SMILES: CCCCCCCCCCCCCCCC(=O)N[C@@H](CCC(=O)NCCCC[C@H](NC(=O)[C@H](CC(=O)O)NC(=O)[C@H](CO)NC(=O)[C@@H](NC(=O)[C@H](Cc1ccccc1)NC(=O)[C@@H](NC(=O)CNC(=O)[C@H](CCC(N)=O)NC(=O)C(C)(C)NC(=O)[C@@H](N)Cc1c[nH]cn1)[C@@H](C)O)[C@@H](C)O)C(=O)N[C@@H](CO)C(=O)N[C@@H](CCCCN)C(=O)N[C@@H](Cc1ccc(O)cc1)C(=O)N[C@@H](CC(C)C)C(=O)N[C@@H](CC(=O)O)C(=O)NC(C)(C)C(=O)N[C@@H](CCCNC(=N)N)C(=O)N[C@@H](C)C(=O)N[C@@H](C)C(=O)N[C@@H](CCC(N)=O)C(=O)N[C@@H](CC(=O)O)C(=O)N[C@@H](Cc1ccccc1)C(=O)N[C@H](C(=O)N[C@@H](CCC(N)=O)C(=O)N[C@@H](Cc1c[nH]c2ccccc12)C(=O)N[C@@H](CC(C)C)C(=O)N[C@@H](CCCCN)C(=O)N[C@@H](CC(=O)O)C(=O)NCC(=O)N[C@@H](CCCNC(=N)N)C(=O)NCC(N)=O)C(C)C)C(=O)O
B2: peptide of SEQ ID NO: 37 (peptide)
peptide: H[Aib]QGTFTSDK([γGlu-γGlu-Palmitoyl])SKYLD[Aib]RAAQDFVQWLMKTK[dE]-OH
B3: peptide of SEQ ID NO: 15 (peptide)
peptide: H[Aib]QGTFTSDYSKYLDEKRA[Aib]EFVC(40K‑TE PEG)WLMDT-NH2

Key:
Test in all cases: cell-based or functional assay
[1] = target: GIP receptor
[2] = target: glucagon receptor
[3] = target: GLP-1 receptor

Binder	EC50 (nM) at GIP receptor [1]	EC50 (nM) at glucagon receptor [2]	EC50 (nM) at GLP-1 receptor [3]
B1	0.47 nM	0.028 nM	0.003 nM
B2	3.3 nM	0.018 nM	0.016 nM
B3	316 nM	1.1 nM	0.071 nM
